Data reported in patent US20050130203A1, “Novel GABAB receptor DNA sequences” (Board of Regents, The University of Texas System, priority 1998, published 2005).

Tests used:
GABABR1a = target: T1, GABABR1a (Mus musculus, UniProt Q9WV18); assay: Xenopus melanophore pigment aggregation/dispersion assay, GABABR1a alone; format: cell-based, murine; details: melanophores transfected with GABABR1a alone; up to 1 mM
T1 construct: GABABR1a was expressed by subcloning full-length GABABR1a into the NheI-NotI site of pcDNA3.1 or pCIneo; expressed in transfected cells; host or cells: Xenopus laevis melanophores (transient)

murine GABABR1a (murine) = murine GABABR1a (murine) (UniProt Q9WV18); assay: cell-based or functional assay
[1] = target: T2, FLAG epitope-tagged HG20 receptor subunit (FLAG epitope fused to amino acids 52-941 of HG20) (human, UniProt O75899 52-941); assay: co-immunoprecipitation and immunoblot
T2 construct: Expressed from SF-HG20/pcDNA3.1 in COS cells and melanophores, or from pT7TS cRNA in oocytes; For immunoprecipitation it was solubilized from membranes with digitonin; also called FLAG-HG20; SF-HG20
T2 sequence: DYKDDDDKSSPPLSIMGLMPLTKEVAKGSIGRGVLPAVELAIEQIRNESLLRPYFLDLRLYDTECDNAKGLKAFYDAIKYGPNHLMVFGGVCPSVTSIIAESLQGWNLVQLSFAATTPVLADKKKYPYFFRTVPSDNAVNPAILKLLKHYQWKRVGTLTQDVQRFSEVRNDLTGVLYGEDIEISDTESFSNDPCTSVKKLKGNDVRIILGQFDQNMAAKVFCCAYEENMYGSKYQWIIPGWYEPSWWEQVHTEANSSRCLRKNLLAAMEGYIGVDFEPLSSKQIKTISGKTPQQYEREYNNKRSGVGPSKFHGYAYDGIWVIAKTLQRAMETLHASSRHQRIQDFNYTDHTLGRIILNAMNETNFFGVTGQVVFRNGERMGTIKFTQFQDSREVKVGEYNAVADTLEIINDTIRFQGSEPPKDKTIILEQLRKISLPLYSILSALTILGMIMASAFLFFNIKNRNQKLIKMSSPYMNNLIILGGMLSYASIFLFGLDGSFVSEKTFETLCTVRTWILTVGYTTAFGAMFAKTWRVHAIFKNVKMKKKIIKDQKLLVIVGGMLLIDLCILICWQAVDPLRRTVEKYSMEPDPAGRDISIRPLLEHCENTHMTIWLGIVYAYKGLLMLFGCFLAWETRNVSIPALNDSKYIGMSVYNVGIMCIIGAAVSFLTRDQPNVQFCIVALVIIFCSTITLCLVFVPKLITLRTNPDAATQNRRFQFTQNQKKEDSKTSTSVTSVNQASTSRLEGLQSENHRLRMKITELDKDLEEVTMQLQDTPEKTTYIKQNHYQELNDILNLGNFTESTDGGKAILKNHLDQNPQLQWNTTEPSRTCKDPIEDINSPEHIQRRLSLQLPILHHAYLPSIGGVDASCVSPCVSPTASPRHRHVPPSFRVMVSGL

[2] = target: the molecule itself; assay: [125I]CGP71872 photolabelling of COS-7 membranes, SDS-PAGE (FIG. 9)

Method for wild-type HEK293 cells: Following a 20 min incubation at 37° C., the assay was terminated by setting the cells on ice and centrifuging at 2,000 rpm for 5 min at 4° C. […] Immulon II removawells (Dynatech; Chantilly, Va.) were coated overnight with 100 μl of protein G (1 mg/ml in 0.1M NaHCO3, pH 9.0) at 4° C. Prior to use, protein G-coated plates were rinsed with PBS-gelatin-Tween (phosphate buffered saline containing 0.1% gelatin, 0.2% Tween-20) 3 times quickly, and then once for 30 minutes. […] Plates were incubated 2 hr at 37° C. or overnight at 4° C., rinsed 3 times with sodium acetate buffer, blotted dry, and then individual wells were broken off and bound radioactivity was determined in a gamma counter.

**Q.** For `N[C@@H](CCC(=O)O)C(=O)O` [L-Glutamate, (L)-glutamic acid], which “pigment aggregation or dispersion response” value (GABABR1a) is on record?
**A.** no pigment aggregation or dispersion response

**Q.** How did the “inhibition of forskolin-stimulated cAMP synthesis” value (wild-type HEK293 cells) turn out when `NCC(CC(=O)O)c1ccc(Cl)cc1` (stereo not shown) [baclofen] was run?
**A.** did not exhibit

**Q.** How did the “pigment aggregation or dispersion response” value (GABABR1a) turn out when `NC/C=C\C(=O)O` [cis-4-aminocrotonic acid] was run?
**A.** no pigment aggregation or dispersion response

**Q.** How did the “pigment aggregation or dispersion response” value (GABABR1a) turn out when `O=S(=O)(O)C1CCNCC1` [piperidine-4-sulfonic acid] was run?
**A.** no pigment aggregation or dispersion response

**Q.** How did the reduction of forskolin-stimulated cAMP synthesis in HEK293 cells (hgb2-42 cells transfected with GABABR1a, GABA plus AOAA and nipecotic acid) (murine GABABR1a (murine)) turn out when “HG20 as expressed in HEK293 cells (HG20 cDNA in pcDNA3.1) (from UniProt O75899 42-941)” was run?
**A.** 43 % decrease

**Q.** Which reduction of forskolin-stimulated cAMP synthesis in HEK293 cells (hgb2-42 cells transfected with GABABR1a, baclofen) (murine GABABR1a (murine)) does the source give for “HG20 as expressed in HEK293 cells (HG20 cDNA in pcDNA3.1) (from UniProt O75899 42-941) (receptor)” here?
**A.** 34 % reduction

**Q.** And the reduction of forskolin-stimulated cAMP synthesis in HEK293 cells (rgb1a-50 cells transfected with HG20, 30 µM GABA plus AOAA and nipecotic acid) (murine GABABR1a (murine))?
**A.** 40 % decrease

**Q.** And the reduction of forskolin-stimulated cAMP synthesis in HEK293 cells (rgb1a-50 cells transfected with HG20, 30 µM baclofen) (murine GABABR1a (murine))?
**A.** 28 % reduction

B1: murine GABABR1a (receptor)
chain: GAQTPNVTSEGCQIIHPPWEGGIRYRGLIRDQVKAINFLPVDYEIEYVCRGEREVVGPKVRKCLANGSWTDMDTPSRCVRICSKSYLTLENGKVFLTGGDLPALDGARVDFRCDPDFHLVGSSRSICSQGQWSTPKPHCQVNRTPHSERRAVYIGALFPMSGGWPGGQACQPAVEMALEDVNSRRDILPDYELKLIHHDSKCDPGQATKYLYELLYNDPIKIILMPGCSSVSTLVAEAARMWNLIVLSYGSSSPALSNRQRFPTFFRTHPSATLHNPTRVKLFEKWGWKKIATIQQTTEVFTSTLDDLEERVKEAGIEITFRQSFFSDPAVPVKNLKRQDARIIVGLFYETEARKVFCEVYKERLFGKKYVWFLIGWYADNWFKTYDPSINCTVEEMTEAVEGHITTEIVMLNPANTRSISNMTSQEFVEKLTKRLKRHPEETGGFQEAPLAYDAIWALALALNKTSGGGGRSGVRLEDFNYNNQTITDQIYRAMNSSSFEGVSGHVVFDASGSRMAWTLIEQLQGGSYKKIGYYDSTKDDLSWSKTDKWIGGSPPADQTLVIKTFRFLSQKLFISVSVLSSLGIVLAVVCLSFNIYNSHARYIQNSQPNLNNLTAVGCSLALAVVFPLGLDGYHIGRSQFPFVCQARLWLLGLGFSLGYGSMFTKIWWVHTVFTKKEEKKEWRKTLEPWKLYATVGLLVGMDVLTLAIWQIVDPLHRTIETFAKEEPKEDIDVSILPQLEHCSSKKMNTWLGIFYGYKGLLLLLGIFLAYETKSVSTEKINDHRAVGMAIYNVAVLCLITAPVTMILSSQQDAAFAFASLAIVFSSYITLVVLFVPKMRRLITRGEWQSETQDTMKTGSSTNNNEEEKSRLLEKENRELEKIIAEKEERVSELRHQLQSRQQLRSRRHPPTPPDPSGGLPRGPSEPPDRLSCDGSRVHLLYK
notes: Full-length cDNA was expressed in COS-7 cells, HEK293 cells, melanophores and oocytes; also called mgb1a; gb1a
**Q.** Does B1 bind [1]?
**A.** binds

**Q.** Does B1 bind [2]?
**A.** binds
